The text below walks through data of PMC10786891, “Massively parallel profiling of RNA-targeting CRISPR-Cas13d”.

The term Kd denotes the free concentration of one partner at which half of the binding sites on the other are occupied at equilibrium, for simple one-to-one binding. A lower Kd goes with tighter binding.

Sequences and labels used below:
T1: EsCas13d, nuclease-dead (Eubacterium siraeum, UniProt B0MS50, R295A;H300A;R849A;H854A)
T1 sequence: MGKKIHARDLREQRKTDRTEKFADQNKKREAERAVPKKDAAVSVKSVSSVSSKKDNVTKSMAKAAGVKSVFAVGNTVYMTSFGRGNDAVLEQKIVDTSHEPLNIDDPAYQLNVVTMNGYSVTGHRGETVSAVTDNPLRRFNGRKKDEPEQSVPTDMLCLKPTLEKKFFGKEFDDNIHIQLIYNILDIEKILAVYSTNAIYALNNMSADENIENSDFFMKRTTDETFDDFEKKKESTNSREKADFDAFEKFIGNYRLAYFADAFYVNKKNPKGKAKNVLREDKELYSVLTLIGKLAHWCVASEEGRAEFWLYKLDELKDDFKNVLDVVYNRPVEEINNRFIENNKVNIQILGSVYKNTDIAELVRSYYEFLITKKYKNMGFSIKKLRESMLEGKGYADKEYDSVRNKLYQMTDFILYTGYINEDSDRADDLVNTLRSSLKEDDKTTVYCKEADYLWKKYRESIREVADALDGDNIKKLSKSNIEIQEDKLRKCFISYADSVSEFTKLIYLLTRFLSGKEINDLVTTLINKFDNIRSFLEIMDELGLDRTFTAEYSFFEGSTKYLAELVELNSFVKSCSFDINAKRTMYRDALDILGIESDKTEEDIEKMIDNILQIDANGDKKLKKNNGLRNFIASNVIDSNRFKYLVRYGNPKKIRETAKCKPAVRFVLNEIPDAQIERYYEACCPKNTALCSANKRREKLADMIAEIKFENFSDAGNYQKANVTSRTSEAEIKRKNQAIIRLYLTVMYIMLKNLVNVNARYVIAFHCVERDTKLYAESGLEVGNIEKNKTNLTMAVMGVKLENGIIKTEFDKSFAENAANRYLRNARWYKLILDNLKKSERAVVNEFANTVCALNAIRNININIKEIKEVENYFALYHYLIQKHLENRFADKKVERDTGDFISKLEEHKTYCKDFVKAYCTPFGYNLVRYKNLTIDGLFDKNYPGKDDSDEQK

B1: target 1 G5A,G13A (mixed)
RNA 1: CACCCGUGCAAAAAUGCAGGGGUCUAAAACUGAGCGGAUAACCUCUCUAUGG
RNA 2: GGGAAUGGAUCCACAUCUACGAAUUCGUACCAUAGAGAAGUUAUCCACUCACCGAGAUCGGAAGAGCACACGU
B2: target 1 insC 3' of 20,insU 3' of 12 (mixed)
RNA 1: CACCCGUGCAAAAAUGCAGGGGUCUAAAACUGAGCGGAUAACCUCUCUAUGG
RNA 2: GGGAAUGGAUCCACAUCUACGAAUUCGUACCACUAGAGAGGUUUAUCCGCUCACCGAGAUCGGAAGAGCACACGU
B3: target 1 insA 3' of 11,insA 3' of 3 (mixed)
RNA 1: CACCCGUGCAAAAAUGCAGGGGUCUAAAACUGAGCGGAUAACCUCUCUAUGG
RNA 2: GGGAAUGGAUCCACAUCUACGAAUUCGUACCAUAGAGAGGUAUAUCCGCUACACCGAGAUCGGAAGAGCACACGU
B4: target 1 insG 3' of 6,insU 3' of 1 (mixed)
RNA 1: CACCCGUGCAAAAAUGCAGGGGUCUAAAACUGAGCGGAUAACCUCUCUAUGG
RNA 2: GGGAAUGGAUCCACAUCUACGAAUUCGUACCAUAGAGAGGUUAUCCGGCUCAUCCGAGAUCGGAAGAGCACACGU
B5: target 1 insA 3' of 6,insA 3' of 2 (mixed)
RNA 1: CACCCGUGCAAAAAUGCAGGGGUCUAAAACUGAGCGGAUAACCUCUCUAUGG
RNA 2: GGGAAUGGAUCCACAUCUACGAAUUCGUACCAUAGAGAGGUUAUCCAGCUCAACCGAGAUCGGAAGAGCACACGU
B6: target 1 C6U,A14G (mixed)
RNA 1: CACCCGUGCAAAAAUGCAGGGGUCUAAAACUGAGCGGAUAACCUCUCUAUGG
RNA 2: GGGAAUGGAUCCACAUCUACGAAUUCGUACCAUAGAGGGGUUAUCUGCUCACCGAGAUCGGAAGAGCACACGU
B7: target 1 U3C,U10C (mixed)
RNA 1: CACCCGUGCAAAAAUGCAGGGGUCUAAAACUGAGCGGAUAACCUCUCUAUGG
RNA 2: GGGAAUGGAUCCACAUCUACGAAUUCGUACCAUAGAGAGGUCAUCCGCCCACCGAGAUCGGAAGAGCACACGU
B8: target 1 insU 3' of 5,insG 3' of 2 (mixed)
RNA 1: CACCCGUGCAAAAAUGCAGGGGUCUAAAACUGAGCGGAUAACCUCUCUAUGG
RNA 2: GGGAAUGGAUCCACAUCUACGAAUUCGUACCAUAGAGAGGUUAUCCGUCUCGACCGAGAUCGGAAGAGCACACGU
B9: target 1 complement block 1-3 (mixed)
RNA 1: CACCCGUGCAAAAAUGCAGGGGUCUAAAACUGAGCGGAUAACCUCUCUAUGG
RNA 2: GGGAAUGGAUCCACAUCUACGAAUUCGUACCAUAGAGAGGUUAUCCGCAGUCCGAGAUCGGAAGAGCACACGU
B10: target 1 insA 3' of 6,insU 3' of 1 (mixed)
RNA 1: CACCCGUGCAAAAAUGCAGGGGUCUAAAACUGAGCGGAUAACCUCUCUAUGG
RNA 2: GGGAAUGGAUCCACAUCUACGAAUUCGUACCAUAGAGAGGUUAUCCAGCUCAUCCGAGAUCGGAAGAGCACACGU
B11: target 1 G12A,G13C (mixed)
RNA 1: CACCCGUGCAAAAAUGCAGGGGUCUAAAACUGAGCGGAUAACCUCUCUAUGG
RNA 2: GGGAAUGGAUCCACAUCUACGAAUUCGUACCAUAGAGACAUUAUCCGCUCACCGAGAUCGGAAGAGCACACGU
B12: target 1 insA 3' of 6,insG 3' of 1 (mixed)
RNA 1: CACCCGUGCAAAAAUGCAGGGGUCUAAAACUGAGCGGAUAACCUCUCUAUGG
RNA 2: GGGAAUGGAUCCACAUCUACGAAUUCGUACCAUAGAGAGGUUAUCCAGCUCAGCCGAGAUCGGAAGAGCACACGU
B13: target 1 G12A,C21U (mixed)
RNA 1: CACCCGUGCAAAAAUGCAGGGGUCUAAAACUGAGCGGAUAACCUCUCUAUGG
RNA 2: GGGAAUGGAUCCACAUCUACGAAUUCGUACUAUAGAGAGAUUAUCCGCUCACCGAGAUCGGAAGAGCACACGU
B14: target 1 del9,del20 (mixed)
RNA 1: CACCCGUGCAAAAAUGCAGGGGUCUAAAACUGAGCGGAUAACCUCUCUAUGG
RNA 2: GGGAAUGGAUCCACAUCUACGAAUUCGUACCUAGAGAGGUUUCCGCUCACCGAGAUCGGAAGAGCACACGU
B15: target 1 insC 3' of 10,insA 3' of 4 (mixed)
RNA 1: CACCCGUGCAAAAAUGCAGGGGUCUAAAACUGAGCGGAUAACCUCUCUAUGG
RNA 2: GGGAAUGGAUCCACAUCUACGAAUUCGUACCAUAGAGAGGUUCAUCCGCAUCACCGAGAUCGGAAGAGCACACGU
B16: target 1 del6,del7 (mixed)
RNA 1: CACCCGUGCAAAAAUGCAGGGGUCUAAAACUGAGCGGAUAACCUCUCUAUGG
RNA 2: GGGAAUGGAUCCACAUCUACGAAUUCGUACCAUAGAGAGGUUAUGCUCACCGAGAUCGGAAGAGCACACGU
B17: target 1 insA 3' of 8,insC 3' of 3 (mixed)
RNA 1: CACCCGUGCAAAAAUGCAGGGGUCUAAAACUGAGCGGAUAACCUCUCUAUGG
RNA 2: GGGAAUGGAUCCACAUCUACGAAUUCGUACCAUAGAGAGGUUAUACCGCUCCACCGAGAUCGGAAGAGCACACGU
B18: target 1 U3G,C6A (mixed)
RNA 1: CACCCGUGCAAAAAUGCAGGGGUCUAAAACUGAGCGGAUAACCUCUCUAUGG
RNA 2: GGGAAUGGAUCCACAUCUACGAAUUCGUACCAUAGAGAGGUUAUCAGCGCACCGAGAUCGGAAGAGCACACGU
B19: target 1 insU 3' of 22,insC 3' of 15 (mixed)
RNA 1: CACCCGUGCAAAAAUGCAGGGGUCUAAAACUGAGCGGAUAACCUCUCUAUGG
RNA 2: GGGAAUGGAUCCACAUCUACGAAUUCGUACUCAUAGAGCAGGUUAUCCGCUCACCGAGAUCGGAAGAGCACACGU
B20: target 1 insG 3' of 8,insU 3' of 4 (mixed)
RNA 1: CACCCGUGCAAAAAUGCAGGGGUCUAAAACUGAGCGGAUAACCUCUCUAUGG
RNA 2: GGGAAUGGAUCCACAUCUACGAAUUCGUACCAUAGAGAGGUUAUGCCGCUUCACCGAGAUCGGAAGAGCACACGU
B21: target 1 U8C,G13A (mixed)
RNA 1: CACCCGUGCAAAAAUGCAGGGGUCUAAAACUGAGCGGAUAACCUCUCUAUGG
RNA 2: GGGAAUGGAUCCACAUCUACGAAUUCGUACCAUAGAGAAGUUACCCGCUCACCGAGAUCGGAAGAGCACACGU
B22: target 1 U3G,U8C (mixed)
RNA 1: CACCCGUGCAAAAAUGCAGGGGUCUAAAACUGAGCGGAUAACCUCUCUAUGG
RNA 2: GGGAAUGGAUCCACAUCUACGAAUUCGUACCAUAGAGAGGUUACCCGCGCACCGAGAUCGGAAGAGCACACGU
B23: target 1 insA 3' of 22,insU 3' of 12 (mixed)
RNA 1: CACCCGUGCAAAAAUGCAGGGGUCUAAAACUGAGCGGAUAACCUCUCUAUGG
RNA 2: GGGAAUGGAUCCACAUCUACGAAUUCGUACACAUAGAGAGGUUUAUCCGCUCACCGAGAUCGGAAGAGCACACGU
B24: target 1 insG 3' of 16,insU 3' of 4 (mixed)
RNA 1: CACCCGUGCAAAAAUGCAGGGGUCUAAAACUGAGCGGAUAACCUCUCUAUGG
RNA 2: GGGAAUGGAUCCACAUCUACGAAUUCGUACCAUAGAGGAGGUUAUCCGCUUCACCGAGAUCGGAAGAGCACACGU
B25: target 1 G12U,C22G (mixed)
RNA 1: CACCCGUGCAAAAAUGCAGGGGUCUAAAACUGAGCGGAUAACCUCUCUAUGG
RNA 2: GGGAAUGGAUCCACAUCUACGAAUUCGUAGCAUAGAGAGUUUAUCCGCUCACCGAGAUCGGAAGAGCACACGU
B26: target 1 C2G,U3A (mixed)
RNA 1: CACCCGUGCAAAAAUGCAGGGGUCUAAAACUGAGCGGAUAACCUCUCUAUGG
RNA 2: GGGAAUGGAUCCACAUCUACGAAUUCGUACCAUAGAGAGGUUAUCCGCAGACCGAGAUCGGAAGAGCACACGU
B27: target 1 insC 3' of 22 (mixed)
RNA 1: CACCCGUGCAAAAAUGCAGGGGUCUAAAACUGAGCGGAUAACCUCUCUAUGG
RNA 2: GGGAAUGGAUCCACAUCUACGAAUUCGUACCCAUAGAGAGGUUAUCCGCUCACCGAGAUCGGAAGAGCACACGU

The data set addresses T1, EsCas13d, nuclease-dead. The data set can be described thus: crRNA (strand 1, pre-loaded); Mg2+; 40 mM Tris-HCl pH 7.5, 150 mM NaCl, 6 mM MgCl2, 1 mM DTT, 0.1% Tween-20, 0.2 mg/ml BSA; 25 C; 10 min per concentration, then washed. The following applies: tags: His6-TwinStrep-SUMO cleaved; N-terminal SNAP kept (SNAP-Surface 488); label: 3' end held by stalled T7 RNA polymerase.
B1 returned a Kd of 34 ± 7 nM.

For B2, the Kd stood at 6.19 ± 0.32 nM. Compared with the last molecule, the Kd is about 5.5-fold lower.

In the case of B3, the Kd was determined as 14 ± 0.7 nM.

B4 had a Kd of 17.8 ± 2.3 nM. The Kd values of the last two molecules are within 1.5-fold of each other.

The molecule B5 yielded a Kd of 18.7 ± 1.3 nM.

B6: the Kd turned out to be 14.2 ± 0.7 nM.

Molecule B7 displayed a Kd of 51 ± 9 nM.

The molecule B8 had a Kd of 9.1 ± 0.5 nM.

B9 came in with a Kd of 7 ± 0.5 nM.

Turning to B10, binding was put at a Kd of 25 ± 5 nM.

In turn, B11 returned a dissociation constant (Kd) of roughly 90 nM.

Consider B12, for which the Kd is 16 ± 1.2 nM.

In turn, B13 showed a Kd of 7.8 ± 0.5 nM.

As for B14, the Kd was found to be 52 ± 7 nM.

As for B15, the Kd is 15.5 ± 2.6 nM.

As to B16, binding was characterised by a dissociation constant (Kd) of 11.4 ± 0.7 nM. The Kd values of the last two molecules are within 1.5-fold of each other.

B17 showed a Kd of 15.8 ± 0.6 nM. This Kd and that of the molecule before are within 1.5-fold of each other.

Molecule B18 registered a Kd of 6.3 ± 0.4 nM.

In the case of B19, the Kd amounted to 67 ± 14 nM. This Kd is about 11-fold higher than that of the molecule before.

Take B20: the Kd came out at 9.44 ± 0.34 nM.

As to B21, the affinity, expressed as Kd, was 61 ± 12 nM.

For the molecule B22, the Kd stood at 7.2 ± 0.33 nM.

In the case of B23, the Kd came to 11.5 ± 1.1 nM.

B24 displayed a Kd of 13.9 ± 0.6 nM.

Regarding B25, the equilibrium dissociation constant (Kd) came to 42 ± 6 nM.

B26 displayed a Kd of 13.4 ± 1.3 nM.

As for B27, the Kd stood at 14.7 ± 0.9 nM.
